These results are taken from US20150376269A1 (Regeneron, published 2015).

Assay [1] deals with T1, serum resistance-associated protein (SRA) from Trypanosoma brucei rhodesiense, recombinant SRA (SEQ ID NO: … (Trypanosoma brucei rhodesiense, UniProt O96637 31-274)).
T1 construct: also called SRA protein
T1 sequence: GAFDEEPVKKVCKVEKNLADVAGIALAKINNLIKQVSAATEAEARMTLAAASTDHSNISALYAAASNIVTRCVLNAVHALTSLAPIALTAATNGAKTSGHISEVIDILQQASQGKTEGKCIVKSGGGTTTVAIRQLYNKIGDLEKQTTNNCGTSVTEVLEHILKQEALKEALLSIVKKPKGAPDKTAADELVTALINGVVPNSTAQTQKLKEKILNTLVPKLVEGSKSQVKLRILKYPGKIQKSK
Nature of the assay: H/D exchange MS, SRA-apoL1 peptide complex, pH 5.0.

Assay [2] deals with T1, serum resistance-associated protein …. Description: SPR, mAb captured, 25C, assoc. pH 7.4, dissoc. pH 4.5. A general note: In SPR one partner is held on a chip, and binding of the other changes the refractive index at the surface.
Procedure: (§1) Equilibrium dissociation constants (KD) values for SRA binding to selected purified anti-SRA monoclonal antibodies were determined using a real-time surface plasmon resonance biosensor assay on a Biacore T200 instrument. […] SRA binding to the captured monoclonal antibodies was monitored for 4 min while the dissociation of mAb bound SRA was monitored for 7 min. Two different assays formats were adopted to characterize kinetics of SRA binding—(i) regular kinetics and (ii) pH4.5 chase. Regular kinetics experiments were performed using pH7.4 buffer as the running buffer and both the association and dissociation was performed in pH7.4. For the chase format, association and dissociation were performed in pH7.4 buffer and pH4.5 buffer respectively.
(§2) Kinetic association (kₐ) and dissociation (kd) rate constants were determined by processing and fitting the data to a 1:1 binding model using Scrubber 2.0c curve fitting software. Only the dissociation rate (kd) was calculated for the pH4.5 chase experiment. Binding dissociation equilibrium constants (KD) and dissociative half-lives (t½) were calculated from the kinetic rate constants as:
The target is the same in assay [3]. Description: SPR, mAb captured, pH 4.5, 25C; competitor biotin-apoL1 peptide.
Assay [4] shares this target. Nature of the assay: SPR, mAb captured, pH 4.5, 25C; competitor biotin-mutant apoL1 peptide.
The target is the same in assay [5]. Description: SPR, 25C, t1/2 pH 7.4 over pH 4.5.
Procedure: as §1, §2
Assay [6] shares this target. Nature of the assay: SPR, mAb captured, 50 nM SRA, pH 4.5, 25C.
Assay [7] addresses T2, SRA.mmh.
T2 construct: also called SRA.mmh (CHO)
T2 antigen: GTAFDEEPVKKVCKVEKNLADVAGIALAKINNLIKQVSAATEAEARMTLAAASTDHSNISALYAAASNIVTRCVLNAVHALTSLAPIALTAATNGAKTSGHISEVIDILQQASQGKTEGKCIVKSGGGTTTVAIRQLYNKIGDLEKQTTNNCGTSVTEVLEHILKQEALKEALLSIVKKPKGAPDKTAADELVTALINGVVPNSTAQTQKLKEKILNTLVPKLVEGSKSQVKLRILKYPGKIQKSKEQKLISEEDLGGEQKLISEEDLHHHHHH
Nature of the assay: Octet, mAb-2 at 50 ug/mL on captured SRA.mmh after negative control α-PRLR H1H6800P as mAb-1 (row 32 (-)).

Assay [8] concerns the target T1, serum resistance-associated protein …. Description: SPR, mAb captured, 25C, pH 7.4.
Procedure: as §1, §2
Assay [9] addresses T2, SRA.mmh. Nature of the assay: Octet, SRA.mmh captured on anti-Penta-His tips, mAb-1 at 50 ug/mL for 5 min, 25 C, pH 7.4. A general note: Biolayer interferometry detects binding as a change in optical thickness at a sensor tip.
Assay [10] concerns the target T1, serum resistance-associated protein …. Description: SPR, mAb captured, 25C, pH 7.4; pH 7.4, 25 C.
Procedure: as §1, §2

What is called Kd is a measure of binding affinity in units of concentration. A word on the kon: it is a measure of how fast the partners come together. As usually defined, the koff is the first-order rate constant of dissociation.

Some results are limits rather than exact numbers.

B1: apoL1 peptide (SEQ ID NO: 297) (peptide)
peptide: VYESKHLHEGAKSETAEELKKVAQELEEKLNILNNNYKILQADQEL
notes: Peptide of human apolipoprotein L1 used in the H/D exchange experiment
Take B1: the binding result in assay [1] is recorded as “binds”.

B2: H1H10041P (antibody, V domains shown)
VH: QVQLVQSGAEVRKPGSSMKVSCATSGGNFRSYTINWVRQAPGQGLEWMGGVFPAVGTRIYAQKFQGRVTISTDESTTIAYMELNSLVPEDTAVYYCARSFNSPFDFWDQGTLVTVSS
VL: AIQMTQSPSSLSASVGDRVTLTCRASQDIRNDLHWFQQTPGKAPRLLIYSASNLQSGVPSRFSGTGSGTDFTLTFSSLQPEDFATYYCLQDYSYPYTFGQGTKLEIK
notes: Fully human antibody with human IgG1 Fc (prefix H1H)
B2: the “t ½” value in [2] was determined as 165 min. Further, in [3], the “50 nM SRA + 5 uM apoL1 peptide binding (RU)” value turned out to be 3 RU and the “% Blocking, apoL1 peptide” value worked out at 97%. Further, in assay [4], the “50 nM SRA + 5 uM mutant apoL1 peptide binding (RU)” value amounted to 83 RU and the “% Blocking, Mutant apoL1 peptide” value came out at 5%. Further, the “t ½ ratio pH 7.4/pH 4.5” value in [5] was not below 1. For the same molecule, the “50 nM SRA binding (RU)” value in [6] was 88 RU. The “Binding of mAb-2 to SRA Pre-complexed with mAb-1” value with SRA.mmh [7] came out at 1.57. For the same molecule, in assay [8], the dissociation constant Kd is not above 0.0277 nM, the on-rate (kon) came to 1.8e+06 M⁻¹ s⁻¹ and the “t ½” value was not below 231 min. The “50 ug/mL mAb 1 Bound (nm)” value in the assay with SRA.mmh [9] turned out to be 1.69 nm.

B3: H2bM10093N (antibody, V domains shown)
VH: EVQLVESGGGLVKPGGSLRLSCVASGFTLSGYSMNWVRQAPGKGLEWVSSISTSSSYIYYADSVQGRFTISRDNAKNSLYLQMNSLRAEDTAVYYCVRKGANWIYFDYWGQGTLVTVSS
VL: DIQMTQSPSSVSASVGDRVTITCRASQGISSLLAWFQQKPGKAPNLLIYAASSLQSGVPSRFSGSGSGTDFTLTISSLQPEDFATYYCQQAKSFPFTFGPGTKVDIK
notes: Chimeric antibody, human variable domains and mouse constant domains; also called H2aM10093N; H2M10093N
With B3, the “t ½” value in [2] was found to be 1.2 min. Besides, in assay [3], the “50 nM SRA + 5 uM apoL1 peptide binding (RU)” value is 4 RU and the “% Blocking, apoL1 peptide” value was 97%. Moreover, the koff in assay [10] was 0.000494 s⁻¹. Further, in assay [4], the “50 nM SRA + 5 uM mutant apoL1 peptide binding (RU)” value stood at 122 RU and the “% Blocking, Mutant apoL1 peptide” value was found to be 12%. For the same molecule, the “t ½ ratio pH 7.4/pH 4.5” value in [5] is 20. Moreover, the “50 nM SRA binding (RU)” value in assay [6] is 138 RU. Besides, in the assay with SRA.mmh [7], the “Binding of mAb-2 to SRA Pre-complexed with mAb-1” value came to 1.32. In assay [8], the dissociation constant (Kd) came out at 0.948 nM, the association rate constant (kon) was determined as 521000 M⁻¹ s⁻¹ and the “t ½” value worked out at 23 min. For the same molecule, in the assay with SRA.mmh [9], the “50 ug/mL mAb 1 Bound (nm)” value is 1.48 nm.
